The text below walks through data of patent US20240002475A1.

The target of assay [1] is green fluorescent protein (GFP), recombinant (Aequorea victoria) [GFP: P42212]. Briefly: SPR, GFP immobilised. (In general: Surface plasmon resonance follows binding to a sensor surface in real time, without labels.)
For assay [2] the target is unchanged. Briefly: SPR, GFP immobilised; reference LaG-16 or LaG-2 alone.
Assay [3] deals with GFP-tagged Nup84 (budding yeast) (budding yeast) (UniProt P52891). Briefly: time course of yeast Nup84-GFP isolation on magnetic beads.

For orientation: Kd means a measure of binding affinity in units of concentration. With “LaG16-LaG2 fusion with a flexible glycine-rich linker”, the Kd in assay [1] was determined as 0.036 nM. The fold lower Kd than either LaG alone in assay [2] was found to be 20 fold. Moreover, in assay [3], the percent of maximum yield after 5 minutes came out at 80% and the percent of maximum yield after 10 minutes is 90%.
